These results are taken from patent US20110027269A1.

The star is where a group is joined. Biotin = O=C1N[C@H]2[C@H](CS[C@H]2CCCCC(=O)*)N1

For the test, the target named is 14-3-3 proteins present within the KLCCM. The experiment in a line: cell-based or functional assay.

Consider Biotin-PHCVPRDLSWLDLEANMCLP-OH (cysteine pairing not given here) [biotinylated R18], for which the MMP-1 expression in dermal fibroblasts treated with KLCCM (western blot, MMP-1/β-actin ratio) stood at 68.8 % reduction.
